Results from US20220275067A1 (PROTHENA BIOSCIENCES, published 2022).
Where no end group is shown, it is not given here. The star is where a group is joined. Biotin = O=C1N[C@H]2[C@H](CS[C@H]2CCCCC(=O)*)N1

T1: biotinylated 15 amino acid tau peptide, residues 383-397 (human)
T1 peptide: Biotin-KAKTDHGAEIVYKSP

T2: biotinylated 15 amino acid tau peptide, residues 302-316 (human)
T2 peptide: Biotin-GGGSVQIVYKPVDLS


How the values were obtained:
[1] = molecular target: pHrodo-labeled tau P301L soluble oligomer, P10636; experiment: cell-based or functional assay
Chain of pHrodo-labeled tau P301L soluble oligomer, P10636 (P10636 other isoform, or with tags, fused parts or gaps P301L P301L): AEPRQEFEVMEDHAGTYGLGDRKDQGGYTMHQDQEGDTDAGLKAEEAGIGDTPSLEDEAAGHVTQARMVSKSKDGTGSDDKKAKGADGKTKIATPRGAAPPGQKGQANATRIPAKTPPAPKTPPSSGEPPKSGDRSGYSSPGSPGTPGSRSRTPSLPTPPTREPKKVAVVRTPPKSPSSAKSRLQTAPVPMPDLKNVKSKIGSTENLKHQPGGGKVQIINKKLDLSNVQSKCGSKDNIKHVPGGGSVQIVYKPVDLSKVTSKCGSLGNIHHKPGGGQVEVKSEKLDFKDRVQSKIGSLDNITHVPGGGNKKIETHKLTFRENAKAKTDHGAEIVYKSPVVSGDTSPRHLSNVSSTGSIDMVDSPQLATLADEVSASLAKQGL

[2] = molecular target: T3, recombinant human 4R0N tau (human, UniProt P10636 2-758); experiment: SPR Biacore; antibody captured by anti-mouse antibody; tau as analyte; global 1:1 fit
T3 construct: also called recombinant 4R0N human tau; P10636-6
T3 sequence (P10636 other isoform, or with tags, fused parts or gaps limits assumed): as the sequence (P10636 other isoform, or with tags, fused parts or gaps P301L P301L) above
Procedure: Surface plasmon resonance (SPR) analysis using Biacore was performed by immobilizing an anti-mouse (GE Lifesciences) antibody to a CM3 chip with EDC/NHS. Antibodies were then captured to the anti-mouse surface to equivalent levels. Regeneration was performed with 2 30 s injections of 10 mM Glycine pH 1.7. Various concentrations ranging from 500 to 0.122 nM, diluted in […] dilutions, of recombinant human 4R0N tau were flowed over the sensor for a 150s association phase and 300 s dissociation phase. Data was blank subtracted to both an irrelevant sensor not containing test antibody to account for irrelevant binding to the prepared sensor surface, and to the mobile phase vehicle to account for the dissociation of test antibody from the anti-mouse capture. Data was then analyzed with onboard evaluation software using a global 1:1 fit.

[3] = molecular target: T4, human tau oligomers (human, UniProt P10636-6 2-383, limits assumed); experiment: cell-based or functional assay
T4 sequence (P10636 other isoform, or with tags, fused parts or gaps limits assumed): as the sequence (P10636 other isoform, or with tags, fused parts or gaps P301L P301L) above

[4] = molecular target: T4, human tau oligomers; experiment: cell-based or functional assay; remark: listed apart in the source
[5] = molecular target: T1, biotinylated 15 amino acid tau peptide, …; experiment: ELISA, biotinylated peptide on streptavidin plate
Procedure: (§1) Peptides contained 15 amino acids, with a 5 amino acid overlap. To enable binding to a streptavidin surface, peptides also contained an N-terminal biotin. Peptides were incubated on a streptavidin-coated plate, and the plate was blocked with 1% BSA in 1× PBS. After washing, antibodies were incubated on the plates for 1 hour at room temperature and washed. Plates were then coated with goat anti-mouse horseradish peroxidase (HRP), and washed. Plates were developed with OPD, and absorbance was read at 490 nm. […]

[6] = molecular target: T2, biotinylated 15 amino acid tau peptide, …; experiment: ELISA, biotinylated peptide on streptavidin plate
Procedure: as §1

Binder | Kd [2] [nM] | koff [2] [s⁻¹] | kon [2] [M⁻¹ s⁻¹] | LDH released by primary neurons with tau oligomers, antibody at 0.2 molar equivs [4] | LDH released by primary neurons with tau oligomers, antibody at 0.33 molar equivs [4] | LDH released by primary neurons with tau oligomers, antibody at 1 molar equivs [4] | LDH released by primary neurons with tau oligomers, antibody at 3 molar equivs [4] | LDH released by primary neurons with tau oligomers, antibody at 5 molar equivs [4] | binding result [5] | binding result [6] | MTT viability of primary neurons with tau oligomers, antibody at 0.2 molar equivs [3] | MTT viability of primary neurons with tau oligomers, antibody at 0.33 molar equivs [3] | MTT viability of primary neurons with tau oligomers, antibody at 1 molar equivs [3] | MTT viability of primary neurons with tau oligomers, antibody at 3 molar equivs [3] | MTT viability of primary neurons with tau oligomers, antibody at 5 molar equivs [3] | other results
mouse 12C4 antibody (antibody, mouse IgG2a, V domains shown, here or on the partner: pHrodo label) VH: EVQLQQSGAELVRPGASVKLSCTASGFNIKDDYMNWVRQRPERGLEWIGWIDPENGDTAYASKFQGKATMTADTSSNTAYLQFSSLTSEDSAVYYCTTSNGWGQGTLVTVSA VL: DIVMTQAAFSNPVTLGTSASISCRSSKSLLHSNGITYLYWYLQKPGQSPQLLIYQMSNLASGVPDRFSSSGSGTDFTLRISRVEAEDVGVYYCAQNLELPLTFGAGTKLELK |  |  |  |  |  |  |  |  |  |  |  |  |  |  |  | internalized pHrodo-tau in B103 cells (FACS), antibody at 0.061 µg/mL (% of maximum signal) [1]: 78.2; internalized pHrodo-tau in B103 cells (FACS), antibody at 0.244 µg/mL (% of maximum signal) [1]: 78.6; internalized pHrodo-tau in B103 cells (FACS), antibody at 0.98 µg/mL (% of maximum signal) [1]: 69.7; internalized pHrodo-tau in B103 cells (FACS), antibody at 3.9 µg/mL (% of maximum signal) [1]: 42.6; internalized pHrodo-tau in B103 cells (FACS), antibody at 15.625 µg/mL (% of maximum signal) [1]: 36.6; internalized pHrodo-tau in B103 cells (FACS), antibody at 62.5 µg/mL (% of maximum signal) [1]: 37.3
mouse 9F5 antibody (antibody, mouse IgG1, V domains shown, also called m9F5; murine 9F5) VH: EVQLQQSGAELVRPGASVKLSCTASGFNIKDDYMNWVKQRPERGLEWIGWIDPENGDTEYASKFQGKATMTADTSSNTAYLQFSSLTSEDTAVYYCTTSNGWGQGTLVTVST VL: DIVMTQAAFSNPVTLGTSASISCRSSKSLLHSNGITYLYWYLQKPGQSPQLLIYQMSNLASGVPDRFSSSGSGTDFTLRISRVEAEDVGVYYCAQNLELPLTFGAGTKLELK | 0.35 | 0.00224 | 6.39e+06 | 155 % of control | 152 % of control | 116 % of control | 95.9 % of control | 91.4 % of control | binds | binds | 47.4 % of control | 58 % of control | 64.9 % of control | 92.6 % of control | 93.1 % of control | 
mouse 10C12 antibody (antibody, mouse IgG2a, V domains shown, also called m10C12) VH: EVQLQQSGAELVRPGASVKLSCTASGFNIKDDYMNWVKQRPERGLEWIGWIDPENGDTEYASKFQGKATMTADTSSNTAYLQFSSLTSEDTAVYYCTTSNGWGQGTLVTVST VL: DIVMTQAAFSNPVTLGTSASISCRSSKSLLHSNGITYLYWYLQKPGQSPQLLIYQMSNLASGVPDRFSSSGSGTDFTLRISRVEAEDVGVYYCAQNLELPLTFGAGTKLELK | 0.375 | 0.00245 | 6.53e+06 | 140 % of control | 129 % of control | 109 % of control | 101 % of control | 95.1 % of control | binds | binds | 47.1 % of control | 51.3 % of control | 56.4 % of control | 69.2 % of control | 86.8 % of control | 
mouse 2D11 antibody (antibody, mouse IgG2a, V domains shown) VH: EVQLQQSGAELVRPGASVKLSCTASGFNIKDDYMNWVKQRPERGLEWIGWIDPENGDTEYASKFQGKATMTADTSSNTAYLQFSSLTSEDTAVYYCTTSNGWGQGTLVTVST VL: DIVMTQAAFSNPVTLGTSASISCRSSKSLLHSNGITYLYWYLQKPGQSPQLLIYQMSNLASGVPDRFSSSGSGTDFTLRISRVEAEDVGVYYCAQNLELPLTFGAGTKLELK | 0.318 | 0.00221 | 6.93e+06 | 177 % of control | 148 % of control | 131 % of control | 109 % of control | 115 % of control | binds | binds | 52.8 % of control | 59.5 % of control | 50.9 % of control | 64 % of control | 92.2 % of control | 
mouse 17C12 antibody (antibody, mouse IgG2a, V domains shown, also called m17C12) VH: KIQLQQSGAELVRPGASVKLSCTASAFNIKDDYMNWVKQRPERGLEWIGWIDPENGDTKYASKFQGKATMTADTSSNTAYLQLSSLTSEDTAVYYCTTSNGWGQGTLVTVSA VL: DVVMTQTPLTLSVTIGQPASISCTSSQSLLHSNRKTYLHWLLQRPGQSPKLLIYLVSKLESGVPDRFSGSGSGTDFTLKISRVEAEDLGVYYCLQTTHFPRTFGGGTKLEIK | 0.482 | 0.00194 | 4.03e+06 |  |  |  |  |  | binds | binds |  |  |  |  |  | 

Second part, led by results:

Kd [2] [nM] | koff [2] [s⁻¹] | kon [2] [M⁻¹ s⁻¹] | LDH released by primary neurons with tau oligomers, antibody at 0.2 molar equivs [4] | LDH released by primary neurons with tau oligomers, antibody at 0.33 molar equivs [4] | LDH released by primary neurons with tau oligomers, antibody at 1 molar equivs [4] | LDH released by primary neurons with tau oligomers, antibody at 3 molar equivs [4] | LDH released by primary neurons with tau oligomers, antibody at 5 molar equivs [4] | binding result [5] | binding result [6] | Binder | MTT viability of primary neurons with tau oligomers, antibody at 0.2 molar equivs [3] | MTT viability of primary neurons with tau oligomers, antibody at 0.33 molar equivs [3] | MTT viability of primary neurons with tau oligomers, antibody at 1 molar equivs [3] | MTT viability of primary neurons with tau oligomers, antibody at 3 molar equivs [3] | MTT viability of primary neurons with tau oligomers, antibody at 5 molar equivs [3] | other results
0.363 | 0.00206 | 5.69e+06 | 153 % of control | 152 % of control | 124 % of control | 110 % of control | 108 % of control | binds | binds | mouse 12C4 antibody (antibody, mouse IgG2a, V domains shown, also called m12C4) VH: EVQLQQSGAELVRPGASVKLSCTASGFNIKDDYMNWVRQRPERGLEWIGWIDPENGDTAYASKFQGKATMTADTSSNTAYLQFSSLTSEDSAVYYCTTSNGWGQGTLVTVSA VL: DIVMTQAAFSNPVTLGTSASISCRSSKSLLHSNGITYLYWYLQKPGQSPQLLIYQMSNLASGVPDRFSSSGSGTDFTLRISRVEAEDVGVYYCAQNLELPLTFGAGTKLELK | 48.6 % of control | 53.2 % of control | 62.3 % of control | 78.7 % of control | 81.1 % of control | 
0.202 | 0.00153 | 7.6e+06 |  |  |  |  |  | binds | binds | mouse 14H3 antibody (antibody, mouse IgG2a, V domains shown, also called m14H3) VH: QVTLKESGPGILQPSQTLSLTCSFSGFSLSTYGMGVGWIRQPSGKGLEWLANIWWDDIKYYNAALKSRLTISKDTSKNQVFLKIASVDTADTATYYCARNVDYWGQGTTLTVSS VL: DVVMTQTPLSLPVSLGDQASISCRSSQSLVHSNGNTFLHWYLQKPGQSPKLLIYKVSNRFSGVPDRFSGSGSGTDFTLKISRVEAEDLGVYFCSQSTLVPWTFGGGTKLEIK |  |  |  |  |  | 
